From patent publication US20240374745A1 (AARHUS UNIVERSITET, published 2024)

Assays:
PD-L1-hFc = target: T1, PD-L1-hFc; experiment: BLI, immobilized PD-L1-hFc
T1 construct: also called immobilized PD-L1; PD-L1 fused to a human Fc region

[1] = target: T2, Recombinant LRP1 (residues 20-974), StrepII-tagged fusion with the human IgG1 Fc region; experiment: affinity depletion on LRP1-coated resin, three rounds
T2 construct: also called LRP1 resin; LRP1 cluster 1B with Nt Strep tags and Ct hFc
T2 sequence (chain, as listed by the source limits assumed): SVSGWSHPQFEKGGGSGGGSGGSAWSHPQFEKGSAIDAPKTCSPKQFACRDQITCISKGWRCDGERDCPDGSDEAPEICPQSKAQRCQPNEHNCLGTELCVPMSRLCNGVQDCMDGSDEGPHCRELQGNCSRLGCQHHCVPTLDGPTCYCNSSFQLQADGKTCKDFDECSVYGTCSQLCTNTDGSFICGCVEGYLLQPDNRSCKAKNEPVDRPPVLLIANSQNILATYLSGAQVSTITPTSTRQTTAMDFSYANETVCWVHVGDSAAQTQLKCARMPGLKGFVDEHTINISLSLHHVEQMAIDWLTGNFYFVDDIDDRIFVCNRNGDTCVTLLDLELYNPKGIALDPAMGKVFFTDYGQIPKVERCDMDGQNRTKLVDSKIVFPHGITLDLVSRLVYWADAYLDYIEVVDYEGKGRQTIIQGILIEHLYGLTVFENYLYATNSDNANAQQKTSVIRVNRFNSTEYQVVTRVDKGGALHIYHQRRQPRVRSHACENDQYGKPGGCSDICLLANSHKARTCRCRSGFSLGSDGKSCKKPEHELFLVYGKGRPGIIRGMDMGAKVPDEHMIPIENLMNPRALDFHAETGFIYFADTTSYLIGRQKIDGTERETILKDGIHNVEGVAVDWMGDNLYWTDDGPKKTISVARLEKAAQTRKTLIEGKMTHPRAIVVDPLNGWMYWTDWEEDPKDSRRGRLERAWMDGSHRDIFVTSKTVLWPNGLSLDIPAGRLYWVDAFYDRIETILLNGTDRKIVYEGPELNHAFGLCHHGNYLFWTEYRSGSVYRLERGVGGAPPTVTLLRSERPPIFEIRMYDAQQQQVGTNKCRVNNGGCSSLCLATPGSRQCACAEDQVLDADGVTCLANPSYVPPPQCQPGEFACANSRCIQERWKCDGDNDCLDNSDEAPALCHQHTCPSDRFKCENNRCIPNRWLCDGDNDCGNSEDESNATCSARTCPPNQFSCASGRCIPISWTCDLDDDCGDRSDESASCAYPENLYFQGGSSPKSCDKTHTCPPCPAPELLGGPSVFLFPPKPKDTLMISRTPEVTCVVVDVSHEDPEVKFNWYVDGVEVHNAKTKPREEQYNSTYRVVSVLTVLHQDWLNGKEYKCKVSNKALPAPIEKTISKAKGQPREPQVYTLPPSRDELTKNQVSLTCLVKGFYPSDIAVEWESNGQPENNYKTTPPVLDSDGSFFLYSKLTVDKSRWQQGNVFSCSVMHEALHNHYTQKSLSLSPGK

T1 sequence (chain, as listed by the source limits assumed): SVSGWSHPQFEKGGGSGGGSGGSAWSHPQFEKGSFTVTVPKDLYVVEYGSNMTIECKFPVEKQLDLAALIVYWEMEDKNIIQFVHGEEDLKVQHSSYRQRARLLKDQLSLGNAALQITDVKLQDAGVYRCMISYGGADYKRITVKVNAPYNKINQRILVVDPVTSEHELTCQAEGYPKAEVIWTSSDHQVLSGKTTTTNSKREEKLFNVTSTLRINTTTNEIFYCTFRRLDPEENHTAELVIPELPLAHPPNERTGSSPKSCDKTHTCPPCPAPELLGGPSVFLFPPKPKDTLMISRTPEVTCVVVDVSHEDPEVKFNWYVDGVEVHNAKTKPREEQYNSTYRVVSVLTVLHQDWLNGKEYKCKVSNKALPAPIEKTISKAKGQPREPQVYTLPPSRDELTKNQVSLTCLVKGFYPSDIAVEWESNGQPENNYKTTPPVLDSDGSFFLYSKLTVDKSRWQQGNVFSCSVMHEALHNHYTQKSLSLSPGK

| binding result (PD-L1-hFc) | binding result [1] | Binder |
| --- | --- | --- |
| binds | – | A2M-PD1, methylamine-treated (other, thiol ester aminolysed with methylamine (position not given), Same chain after methylamine treatment; also called A2M ciRBD PD1) SVSGKPQYMVLVPSLLHTETTEKGCVLLSYLNETVTVSASLESVRGNRSLFTDLEAENDVLHCVAFAVPKSSSNEEVMFLTVQVKGPTQEFKKRTTVMVKNEDSLVFVQTDKSIYKPGQTVKFRVVSMDENFHPLNELIPLVYIQDPKGNRIAQWQSFQLEGGLKQFSFPLSSEPFQGSYKVVVQKKSGGRTEHPFTVEEFVLPKFEVQVTVPKIITILEEEMNVSVCGLYTYGKPVPGHVTVSICRKYSDASDCHGEDSQAFCEKFSGQLNSHGCFYQQVKTKVFQLKRKEYEMKLHTEAQIQEEGTVVELTGRQSSEITRTITKLSFVKVDSHFRQGIPFFGQVRLVDGKGVPIPNKVIFIRGNEANYYSNATTDEHGLVQFSINTTNVMGTSLTVRVNYKDRSPCYGYQWVSEEHEEAHHTAYLVFSPSKSFVHLEPMSHELPCGHTQTVQAHYILNGGTLLGLKKLSFYYLIMAKGGIVRTGTHGLLVKQEDMKGHFSISIPVKSDIAPVARLLIYAVLPTGDVIGDSAKYDVENCLANKVDLSFSPSQSLPASHAHLRVTAAPQSVCALRAVDQSVLLMKPDAELSASSVYNLLPEKDLTGFPGPLNDQDDEDCINRHNVYINGITYTPVSSTNEKDMYSFLEDMGLKAFTNSKIRKPKMCPQLQQYEMHGPEGLRVGFYESDVMGRGHARLVHVEEPHTETVRKYFPETWIWDLVVVNSAGVAEVGVTVPDTITEWKAGAFCLSEDAGLGISSTASLRAFQPFFVELTMPYSVIRGEAFTLKATVLNYLPKCIRVSVQLEASPAFLAVPVEKEQAPHCICANGRQTVSWAVTPKSLGNVNFTVSAEALESQELCGTEVPSVPEHGRKDTVIKPLLVEPEGLEKETTFNSLLCPSGGEVSEELSLKLPPNVVEESARASVSVLGDILGSAMQNTQNLLQMPYGCGEQNMVLFAPNIYVLDYLNETQQLTPEVKSKAIGYLNTGYQRQLNYKHYDGSYSTFGERYGRNQGNTWLTAFVLKTFAQARAYIFIDEAHITQALIWLSQRQKDNGCFRSSGSLLNNAIKGGVEDEVTLSAYITIALLEIPLTVTHPVVRNALFCLESAWKTAQEGDHGSHVYTKALLAYAFALAGNQDKRKEVLKSLNEEAVKKDNSVHWERPQKPKAPVGHFYEPQAPSAEVEMTSYVLLAYLTAQPAPTSEDLTSATNIVKWITKQQNAQGGFSSTQDTVVALHALSKYGAATFTRTGKAAQVTIQSSGTFSSKFQVDNNNRLLLQQVSLPELPGEYSMKVTGEGCVYLQTSLKYNILPEKEEFPFALGVQTLPQTCDEPKAHTSFQISLSVSYTGSRSASNMAIVDVKMVSGFIPLKPTVKMLERSGSGGSGGSGGSGGSGGSDSPDRPWNPPTFSPALLVVTEGDNATFTCSFSNTSESFVLNWYRMSPSNQTDKLAAFPEDRSQPGQDSRFRVTQLPNGRDFHMSVVRARRNDSGTYLCGAISLAPKAQIKESLRAELRVTERRAEGSSGGSGGSGGSGGSNHVSRTEVSSNHVLIYLDKVSNQTLSLFFTVLQDVPVRDLKPAIVKVYDYYETDEFAIAEYNAPCSKDLGNA |
| – | binds | non-native A2M-PD1 (component of the untreated preparation) (other, The part of the untreated preparation that is removed by LRP1-based depletion; also called A2M ciRBD PD1) SVSGKPQYMVLVPSLLHTETTEKGCVLLSYLNETVTVSASLESVRGNRSLFTDLEAENDVLHCVAFAVPKSSSNEEVMFLTVQVKGPTQEFKKRTTVMVKNEDSLVFVQTDKSIYKPGQTVKFRVVSMDENFHPLNELIPLVYIQDPKGNRIAQWQSFQLEGGLKQFSFPLSSEPFQGSYKVVVQKKSGGRTEHPFTVEEFVLPKFEVQVTVPKIITILEEEMNVSVCGLYTYGKPVPGHVTVSICRKYSDASDCHGEDSQAFCEKFSGQLNSHGCFYQQVKTKVFQLKRKEYEMKLHTEAQIQEEGTVVELTGRQSSEITRTITKLSFVKVDSHFRQGIPFFGQVRLVDGKGVPIPNKVIFIRGNEANYYSNATTDEHGLVQFSINTTNVMGTSLTVRVNYKDRSPCYGYQWVSEEHEEAHHTAYLVFSPSKSFVHLEPMSHELPCGHTQTVQAHYILNGGTLLGLKKLSFYYLIMAKGGIVRTGTHGLLVKQEDMKGHFSISIPVKSDIAPVARLLIYAVLPTGDVIGDSAKYDVENCLANKVDLSFSPSQSLPASHAHLRVTAAPQSVCALRAVDQSVLLMKPDAELSASSVYNLLPEKDLTGFPGPLNDQDDEDCINRHNVYINGITYTPVSSTNEKDMYSFLEDMGLKAFTNSKIRKPKMCPQLQQYEMHGPEGLRVGFYESDVMGRGHARLVHVEEPHTETVRKYFPETWIWDLVVVNSAGVAEVGVTVPDTITEWKAGAFCLSEDAGLGISSTASLRAFQPFFVELTMPYSVIRGEAFTLKATVLNYLPKCIRVSVQLEASPAFLAVPVEKEQAPHCICANGRQTVSWAVTPKSLGNVNFTVSAEALESQELCGTEVPSVPEHGRKDTVIKPLLVEPEGLEKETTFNSLLCPSGGEVSEELSLKLPPNVVEESARASVSVLGDILGSAMQNTQNLLQMPYGCGEQNMVLFAPNIYVLDYLNETQQLTPEVKSKAIGYLNTGYQRQLNYKHYDGSYSTFGERYGRNQGNTWLTAFVLKTFAQARAYIFIDEAHITQALIWLSQRQKDNGCFRSSGSLLNNAIKGGVEDEVTLSAYITIALLEIPLTVTHPVVRNALFCLESAWKTAQEGDHGSHVYTKALLAYAFALAGNQDKRKEVLKSLNEEAVKKDNSVHWERPQKPKAPVGHFYEPQAPSAEVEMTSYVLLAYLTAQPAPTSEDLTSATNIVKWITKQQNAQGGFSSTQDTVVALHALSKYGAATFTRTGKAAQVTIQSSGTFSSKFQVDNNNRLLLQQVSLPELPGEYSMKVTGEGCVYLQTSLKYNILPEKEEFPFALGVQTLPQTCDEPKAHTSFQISLSVSYTGSRSASNMAIVDVKMVSGFIPLKPTVKMLERSGSGGSGGSGGSGGSGGSDSPDRPWNPPTFSPALLVVTEGDNATFTCSFSNTSESFVLNWYRMSPSNQTDKLAAFPEDRSQPGQDSRFRVTQLPNGRDFHMSVVRARRNDSGTYLCGAISLAPKAQIKESLRAELRVTERRAEGSSGGSGGSGGSGGSNHVSRTEVSSNHVLIYLDKVSNQTLSLFFTVLQDVPVRDLKPAIVKVYDYYETDEFAIAEYNAPCSKDLGNA |
| – | binds | A2M-Nivolumab, pre-activated (non-native) component of the untreated preparation (other) SVSGKPQYMVLVPSLLHTETTEKGCVLLSYLNETVTVSASLESVRGNRSLFTDLEAENDVLHCVAFAVPKSSSNEEVMFLTVQVKGPTQEFKKRTTVMVKNEDSLVFVQTDKSIYKPGQTVKFRVVSMDENFHPLNELIPLVYIQDPKGNRIAQWQSFQLEGGLKQFSFPLSSEPFQGSYKVVVQKKSGGRTEHPFTVEEFVLPKFEVQVTVPKIITILEEEMNVSVCGLYTYGKPVPGHVTVSICRKYSDASDCHGEDSQAFCEKFSGQLNSHGCFYQQVKTKVFQLKRKEYEMKLHTEAQIQEEGTVVELTGRQSSEITRTITKLSFVKVDSHFRQGIPFFGQVRLVDGKGVPIPNKVIFIRGNEANYYSNATTDEHGLVQFSINTTNVMGTSLTVRVNYKDRSPCYGYQWVSEEHEEAHHTAYLVFSPSKSFVHLEPMSHELPCGHTQTVQAHYILNGGTLLGLKKLSFYYLIMAKGGIVRTGTHGLLVKQEDMKGHFSISIPVKSDIAPVARLLIYAVLPTGDVIGDSAKYDVENCLANKVDLSFSPSQSLPASHAHLRVTAAPQSVCALRAVDQSVLLMKPDAELSASSVYNLLPEKDLTGFPGPLNDQDDEDCINRHNVYINGITYTPVSSTNEKDMYSFLEDMGLKAFTNSKIRKPKMCPQLQQYEMHGPEGLRVGFYESDVMGRGHARLVHVEEPHTETVRKYFPETWIWDLVVVNSAGVAEVGVTVPDTITEWKAGAFCLSEDAGLGISSTASLRAFQPFFVELTMPYSVIRGEAFTLKATVLNYLPKCIRVSVQLEASPAFLAVPVEKEQAPHCICANGRQTVSWAVTPKSLGNVNFTVSAEALESQELCGTEVPSVPEHGRKDTVIKPLLVEPEGLEKETTFNSLLCPSGGEVSEELSLKLPPNVVEESARASVSVLGDILGSAMQNTQNLLQMPYGCGEQNMVLFAPNIYVLDYLNETQQLTPEVKSKAIGYLNTGYQRQLNYKHYDGSYSTFGERYGRNQGNTWLTAFVLKTFAQARAYIFIDEAHITQALIWLSQRQKDNGCFRSSGSLLNNAIKGGVEDEVTLSAYITIALLEIPLTVTHPVVRNALFCLESAWKTAQEGDHGSHVYTKALLAYAFALAGNQDKRKEVLKSLNEEAVKKDNSVHWERPQKPKAPVGHFYEPQAPSAEVEMTSYVLLAYLTAQPAPTSEDLTSATNIVKWITKQQNAQGGFSSTQDTVVALHALSKYGAATFTRTGKAAQVTIQSSGTFSSKFQVDNNNRLLLQQVSLPELPGEYSMKVTGEGCVYLQTSLKYNILPEKEEFPFALGVQTLPQTCDEPKAHTSFQISLSVSYTGSRSASNMAIVDVKMVSGFIPLKPTVKMLERSGSGGSGGSGGSGGSGGSQVQLVESGGGVVQPGRSLRLDCKASGITFSNSGMHWVRQAPGKGLEWVAVIWYDGSKRYYADSVKGRFTISRDNSKNTLFLQMNSLRAEDTAVYYCATNDDYWGQGTLVTVSSGGGGSGGGGSGGGGSEIVLTQSPATLSLSPGERATLSCRASQSVSSYLAWYQQKPGQAPRLLIYDASNRATGIPARFSGSGSGTDFTLTISSLEPEDFAVYYCQQSSNWPRTFGQGTKVEIKGSSGGSGGSGGSGGSNHVSRTEVSSNHVLIYLDKVSNQTLSLFFTVLQDVPVRDLKPAIVKVYDYYETDEFAIAEYNAPCSKDLGNA |
